Reference: publication PMC2740933

Biological target: Moloney murine leukemia virus reverse transcriptase N-terminal fragment (MMLV RT) (Moloney murine leukemia virus, UniProt P03355 683-937)
Experiment: X-ray crystallography

Moloney murine leukemia virus reverse transcriptase N-terminal fragment (MMLV RT), sequence (P03355 683-937): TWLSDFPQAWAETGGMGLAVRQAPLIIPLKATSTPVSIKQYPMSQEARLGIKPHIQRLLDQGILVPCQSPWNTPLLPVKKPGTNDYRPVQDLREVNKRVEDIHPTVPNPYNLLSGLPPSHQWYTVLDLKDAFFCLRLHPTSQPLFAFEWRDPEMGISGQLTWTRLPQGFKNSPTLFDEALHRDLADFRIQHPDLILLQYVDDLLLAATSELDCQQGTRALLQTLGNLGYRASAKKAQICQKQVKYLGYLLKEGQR

B1: 16-mer AATT duplex (dsDNA)
DNA 1: CTTAATTCGAATTAAG
DNA 2: CTTAATTCGAATTAAG
binding result: binds
